According to patent US20130133089A1 (MEDICAL RESEARCH INFRASTRUCTURE AND HEALTH SERVICES FUND OF …, published 2013):
Positions count from the first letter of the chain named. In names and notes the source's numbering stands. Where two headings read alike, the source gives them in different places. One block for each molecule: values may come before it.

Tests used:
[1] = molecular target: Recombinant human leptin binding domain (hLBD) (human) (UniProt P48357); experiment: competitive plate binding assay: immobilized hLBD, biotinylated mouse leptin as ligand, mutein as competitor
[2] = molecular target: long form of human leptin receptor (hLEPR) on BAF/3 or H-49 (HEK-293) cells (human) (UniProt P48357); experiment: cell-based or functional assay
[3] = molecular target: T1, Recombinant human leptin binding domain (hLBD) (human, UniProt P48357 428-635, biotinylated with Sulfo-NHS-LC-Biotin in the yeast display assays; not labelled when immobilized in the plate binding assay); experiment: competitive plate binding assay: immobilized hLBD, biotinylated mouse leptin as ligand, mutein as competitor
T1 construct: CRH2 sub-domain of the leptin receptor; Prepared in the applicants' laboratory; also called soluble human leptin receptor; CHR2
T1 sequence (looked up): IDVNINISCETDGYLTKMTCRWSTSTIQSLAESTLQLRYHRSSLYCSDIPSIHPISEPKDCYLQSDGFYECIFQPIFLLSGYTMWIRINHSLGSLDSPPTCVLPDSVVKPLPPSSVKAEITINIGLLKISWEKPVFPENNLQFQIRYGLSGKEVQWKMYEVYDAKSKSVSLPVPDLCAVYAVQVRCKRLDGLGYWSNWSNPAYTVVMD
Description: (§1) Biotinylated mouse leptin served as the ligand in all competitive experiments and the respective mouse leptin or mouse or human leptin antagonist muteins as competitors. The hLBD was used as the receptor source. Polystyrene 96-well microtiter plates were coated overnight at 4° C. with 100 μl of 40 μM hLBD in PBS pH 7.4. Wells were then washed one time with PBST (PBS containing 0.05 Tween 20) and blocked with PBS containing 3% skim milk for two hours in room temperature. All further incubations were carried out at room temperature. Wells were washed one time with PBST and incubated with different concentrations of un-labeled leptins (50 μl/well) for 30 min and then 50 μl of 62.5 μM of biotinylated mouse leptin were added to each well for another two hours. Then the wells were washed three times with PBST and incubated with 1:30,000 streptavidin-HRP in PBS containing 1 Tween 20 for one hour. Subsequently the wells were washed three times with PBST and the reaction was quantified in 450 nm by microplate reader ELISA Plate Reader ELx808—Bio-Tek Instrument Inc. (Winooski, Vt., USA) using TMB according to manufacturer's instructions.

[4] = molecular target: long form of human leptin receptor (hLEPR) on BAF/3 or H-49 (HEK-293) cells (human), P48357; experiment: cell-based or functional assay
[5] = molecular target: T1, Recombinant human leptin binding domain …; experiment: competitive plate binding assay: immobilized hLBD, biotinylated mouse leptin as ligand, mutein as competitor; remark: listed apart in the source
Description: as §1

[6] = molecular target: T1, Recombinant human leptin binding domain …; experiment: competitive plate binding assay on immobilized hLBD
Description: as §1

[7] = molecular target: T1, Recombinant human leptin binding domain …; experiment: competitive plate binding assay on immobilized hLBD, representative experiment (FIG. 7D)
Description: as §1

[8] = molecular target: T1, Recombinant human leptin binding domain …; experiment: competitive plate binding assay on immobilized hLBD (FIG. 12C)
Description: as §1

[9] = molecular target: T1, Recombinant human leptin binding domain …; experiment: competitive plate binding assay on immobilized hLBD (FIG. 12D)
Description: as §1

Sequence of long form of human leptin receptor (hLEPR) on BAF/3 or H-49 (HEK-293) cells (human), P48357 (P48357 22-1165): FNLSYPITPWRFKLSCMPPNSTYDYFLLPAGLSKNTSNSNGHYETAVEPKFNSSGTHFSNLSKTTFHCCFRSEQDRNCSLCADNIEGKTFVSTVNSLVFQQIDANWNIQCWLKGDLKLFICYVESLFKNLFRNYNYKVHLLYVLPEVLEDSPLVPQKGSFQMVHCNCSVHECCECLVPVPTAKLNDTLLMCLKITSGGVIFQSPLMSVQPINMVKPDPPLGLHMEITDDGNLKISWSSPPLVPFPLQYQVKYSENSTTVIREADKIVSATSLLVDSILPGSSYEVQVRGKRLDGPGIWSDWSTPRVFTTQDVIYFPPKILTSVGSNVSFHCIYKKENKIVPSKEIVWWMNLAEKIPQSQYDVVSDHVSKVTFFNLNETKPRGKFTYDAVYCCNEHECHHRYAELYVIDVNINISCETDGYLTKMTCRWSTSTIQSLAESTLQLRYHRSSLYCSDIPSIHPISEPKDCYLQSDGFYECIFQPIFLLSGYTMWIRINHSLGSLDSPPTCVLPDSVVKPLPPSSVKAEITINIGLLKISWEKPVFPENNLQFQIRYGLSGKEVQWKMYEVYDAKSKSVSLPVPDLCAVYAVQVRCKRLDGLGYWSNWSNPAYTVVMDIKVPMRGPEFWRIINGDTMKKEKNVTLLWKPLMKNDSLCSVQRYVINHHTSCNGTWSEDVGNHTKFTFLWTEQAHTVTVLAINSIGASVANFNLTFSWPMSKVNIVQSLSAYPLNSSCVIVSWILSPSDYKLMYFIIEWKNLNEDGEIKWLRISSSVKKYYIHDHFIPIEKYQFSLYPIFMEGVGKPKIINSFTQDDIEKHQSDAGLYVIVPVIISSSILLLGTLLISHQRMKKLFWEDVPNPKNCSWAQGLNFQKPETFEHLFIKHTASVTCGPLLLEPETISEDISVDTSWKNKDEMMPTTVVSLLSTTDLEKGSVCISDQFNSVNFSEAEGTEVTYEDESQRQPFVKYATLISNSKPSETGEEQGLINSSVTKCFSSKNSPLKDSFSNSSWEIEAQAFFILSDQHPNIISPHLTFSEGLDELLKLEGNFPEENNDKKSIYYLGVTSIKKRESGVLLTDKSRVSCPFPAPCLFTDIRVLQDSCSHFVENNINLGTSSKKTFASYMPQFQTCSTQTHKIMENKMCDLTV
Sequence of long form of human leptin receptor (hLEPR) on BAF/3 or H-49 (HEK-293) cells (human) (P48357 22-1165): as above

fold increase in affinity as compared to the WT mouse leptin [1]: 0.83 fold
BAF/3 bioassay: fold increase in bioactivity as compared to the WT mouse leptin [2]: 0.5 fold
Luciferase bioassay: fold increase in bioactivity as compared to the WT mouse leptin [2]: 0.3 fold
Molecule: recombinant mouse leptin mutein H7 (K11R, Q34R, T37A, F92C, S97Y, I136V), agonist (from UniProt P41160 22-167) (ligand)

fold increase in affinity as compared to the WT mouse leptin antagonist [3]: 34 fold
BAF/3 bioassay: fold increase in bioactivity as compared to the WT mouse leptin antagonist [4]: 5 fold
Luciferase bioassay: fold increase in bioactivity as compared to the WT mouse leptin antagonist [4]: 5.7 fold
fold increase in affinity as compared to the WT mouse leptin antagonist [5]: 34 fold
B1: mouse leptin antagonist D23H/L39A/D40A/F41A (ligand)
chain: AVPIQKVQDDTKTLIKTIVTRINHISHTQSVSAKQRVTGAAAIPGLHPILSLSKMDQTLAVYQQVLTSLPSQNVLQIANDLENLRDLLHLLAFSKSCSLPQTSGLQKPESLDGVLEASLYSTEVVALSRLQGSLQDILQQLDVSPEC
notes: mature; also called H30 (antagonist); D23H MLA

fold reduction in affinity by pegylation, as compared to MLA [6]: 6.3 fold
B2: pegylated mouse leptin antagonist (PEG-MLA) (ligand)
chain: B1 chain with H24D
modifications: pegylated (method previously described for MLA; 20 kDa PEG, site not restated here)
notes: mature; also called pegylated-MLA

fold increase in affinity as compared to the WT mouse leptin antagonist [3]: 36 fold
BAF/3 bioassay: fold increase in bioactivity as compared to the WT mouse leptin antagonist [4]: 4.2 fold
B3: mouse leptin antagonist D23W/L39A/D40A/F41A (ligand)
chain: B1 chain with H24W
notes: mature

fold reduction in affinity as compared to the non-pegylated SMLA [7]: 6.2 fold
B4: pegylated superactive mouse leptin antagonist (PEG-SMLA) (ligand)
chain: VPIQKVQDDTKTLIKTLVTRINLISHTQSVSAKQRVTGAAAIPGLHPILSLSKMDQTLAVYQQVLTSLPSQNVLQIANDLENLRDLLHLLAFSKSCSLPQTSGLQKPESLDGVLEASLYSTEVVALSRLQGSLQDILQQVDLSPGC
modifications: mPEG-propionyl-ALD 20 kDa, preferentially on the N-terminal amino group (85% monopegylated, ~9% double pegylated)
notes: also called pegylated SMLA; superANT

fold increase in the affinity due to D23L mutation (against HLA) [8]: 44 fold
B5: human leptin super antagonist (SHLA), human leptin D23L/L39A/D40A/F41A (ligand)
chain: VPIQKVQDDTKTLIKTIVTRINLISHTQSVSSKQKVTGAAAIPGLHPILTLSKMDQTLAVYQQILTSMPSQNVIQISNDLENLRDLLHVLAFSKSCHLPWASGLETLDSLGGVLEASGYSTEVVALSRLQGSLQDMLWQLDLSPGC
notes: also called super active human leptin antagonist

fold increase in the affinity due to D23L mutation (against PEG-HLA) [9]: 80 fold
B6: pegylated human leptin super antagonist (PEG-SHLA) (ligand)
chain: B5 chain
modifications: mPEG-propionyl-ALD 20 kDa, preferentially on the N-terminal amino group
